For 1 substance, percentage of activated (CD8+CD25+) T cells, flow cytometry; PD-L1 traditional exosome; unmodified exosome 34.1% results are on record in US20260256941A1.

The assay addresses PD-1 receptor on the surface of T cells (human) (UniProt Q15116). Put plainly: cell-based or functional assay.
UniProt Q15116, sequence (Q15116 25-288): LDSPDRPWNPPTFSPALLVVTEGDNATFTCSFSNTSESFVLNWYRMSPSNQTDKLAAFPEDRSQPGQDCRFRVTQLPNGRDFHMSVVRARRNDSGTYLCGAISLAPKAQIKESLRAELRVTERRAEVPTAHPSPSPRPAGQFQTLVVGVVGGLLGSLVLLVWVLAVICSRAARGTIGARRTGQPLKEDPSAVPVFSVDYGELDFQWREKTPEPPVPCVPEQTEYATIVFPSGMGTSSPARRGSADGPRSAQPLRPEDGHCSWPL

“PD-L1 traditional exosome (PD-L1 displayed by traditional engineering methods) (ligand)”: the percentage of activated (CD8+CD25+) T cells, flow cytometry; PD-L1 traditional exosome; unmodified exosome 34.1% worked out at 22.5%.
